# Reference: the nanobody polyreactivity screen of Harvey et al. (2022)
# Assay: yeast display, Sf9 membrane polyspecificity reagent, FACS + sequencing; frameworks hold sequencing errors
# How it was run: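 In a synthetic yeast display library (Saccharomyces cerevisiae BJ5465), nanobody expression was induced with galactose for 36–48 hours. FACS gates were set low and high (top ~1%) using anti-HA fluorescence for expression and streptavidin fluorescence for binding of the Sf9 membrane reagent. Each polyreactivity label is drawn from the gate of origin.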
row,Sequence,polyreactivity (PSR sort gate)
1,QVQLVESGGGLVQAGGSLRLSCAASGFTFYLYTMGWYRQAPGKERELVATITSDGGTNYADSVKGRFTISRDNAKNTVYLQMNSLKPEDTAVYYCNAASRRGSRKQAKYDYWGQGTQVTVSS,low polyreactivity
2,QVQLVESGGGLVQAGGSLRLSCAASGFTFYNVMGWYRQAPGKERELVATISTSVDSTYYADSVKGRFTISRDNAKNTVYLQMNSLKPEDTAVYYCNADISSNYYDYFGYDYWGQGTQVTVSS,low polyreactivity
3,QVQLVESGGGLVQAGGSLRLSCAASGFTFYNYAMGWYRPAPGKERELVAAITKSGSRTYYADSVKGRFTISRDNAKNTVYLQMNSLKPEDTAVYYCARDYTVRGYDYWGQGTQVTVSS,high polyreactivity
4,QVQLVESGGGLVQAGGSLRLSCAASGFTFYNYAMGWYRQAPGKERELVAAISTSGGSTYYADSVKGRFTISRDNAKNTVYLQMNSLKPEDTAVYYCAAQATAYSYAYYYWGQGTQVTVSS,low polyreactivity
5,QVQLVESGGGLVQAGGSLRLSCAASGFTFYPYAMGCYRQAPGKERELVDAISNGASTHYADSVKGRFTISRDNAKNTVYLQMNSLKPEDTAVYYCNAYTRYPFYFVTSKYDYWGQGTQVTVSS,low polyreactivity
6,QVQLVESGGGLVQAGGSLRLSCAASGFTFYPYAMGWYRQAPGKESEFVAAITWRGASTYYADSVKGRFTISRDNAKNTVYLQMNSLKPEDTAVYYCNARWRVPRYRYDYWGQGTQVTVSS,high polyreactivity
7,QVQLVESGGGLVQAGGSLRLSCAASGFTFYQNAMGWYRQAPGKEREFVAAISRRGGSTYYADSVKGRFTISRDNAKNTVYLQMNSLKPEDTAVYYCAADYKRKSDGDYWGQGTQVTVSS,high polyreactivity
8,QVQLVESGGGLVQAGGSLRLSCAASGFTFYRNAMGWSRQAPGKERELVAAISRGGRTYYADSVKGRFTISRDNAKNTVYLQMNSLKPEDTAVYYCAVGYSGYGSSMDYWGQGTQVTVSS,high polyreactivity
9,QVQLVESGGGLVQAGGSLRLSCAASGFTFYRNAMGWYRQAPGKERELVAAISGSGGRTYADSVKGRFTISRDIAKNTVYLQMNSLKPEDTAVYYCAASGYSSYRRYSTSNGYWGQGTQVTVSS,high polyreactivity
10,QVQLVESGGGLVQAGGSLRLSCAASGFTFYRNAMGWYRQAPGKERELVAAISWSGDSTYYADSVKGRFTISRDNAKNTVYLQMNSLKPEDTAVYYCDKERYFYYPWVTTYTSNYWGQGTQVTVSS,low polyreactivity
11,QVQLVESGGGLVQAGGSLRLSCAASGFTFYRNAMGWYRQAPGKERELVAAITWSGTSTYYADSVKGRFTISRDNAKNTVYLQMNSLKPEDTAVYYCNTVGYRGRSNSRFYYWGQGTQVTVSS,high polyreactivity
12,QVQLVESGGGLVQAGGSLRLSCAASGFTFYRNAMGWYRQAPGKERELVAGISKRGGSTYYADSVKGRFTISRDNAKNTVYLQMNSLKPEDTAVYYCARGGYPGSAEYDYWGQGTQVTVSS,high polyreactivity
13,QVQLVESGGGLVQAGGSLRLSCAASGFTFYRYAMGWYRQAPGKERELVAAISWSGASTYYADSVKGRFTISRDNAKNTVYLQMNSLKPEDTPVYYCNAYDTYLGGFDYWGQGTQVTVSS,high polyreactivity
14,QVQLVESGGGLVQAGGSLRLSCAASGFTFYRYAMGWYRQAPGKERELVAAITQSGGSTYYADSVKGRFTISRDNAKNTVYLQMNSLKPEDTAVYYCAARYRYDYGYGLGYSWGQGTQVTVSS,high polyreactivity
15,QVQLVESGGGLVQAGGSLRLSCAASGFTFYRYAMGWYRQAPGKERELVAAITSGGSTNYADSVKGRFTISRDNANNTVYLQMNSLKPEDTAVYYCNAGRYVRWWWYSPDDYWGQGTQVTVSS,high polyreactivity
16,QVQLVESGGGLVQAGGSLRLSCAASGFTFYRYAMGWYRQAPGKERELVATISASGGSTYYADSVKGRFTISRDNAKNTVYLQMISLKPEDTAVYYCAVRTIWRFRYDYWGQGTQVTVSS,high polyreactivity
17,QVQLVESGGGLVQAGGSLRLSCAASGFTFYRYAMGWYRQAPGKESELVAAISGSGGSTYYADSVKGRFTISRDNAKNTVYLQMNSLKPEDTAVYYCNTVWFYGAKYDYWGQGTQVTVSS,high polyreactivity
18,QVQLVESGGGLVQAGGSLRLSCAASGFTFYSNAMGWYRQAPGKERELVAAINWGGGSTYYADSVKGRFTISRDNAKNTVNLQMNSLKPEDTAVYYCAAEPIWEYWNGVSYAYDYWGQGTQVTVSS,low polyreactivity
19,QVQLVESGGGLVQAGGSLRLSCAASGFTFYSNAMGWYRQAPGKERELVARITKRGGSTYYADSVKGRFTISRDNAKNTVYLQMNSLKPEDTAVYYCAADDGSDAEYYYWGQGTQVTVSS,high polyreactivity
20,QVQLVESGGGLVQAGGSLRLSCAASGFTFYSYAMGWYRQAPGKERELVAAISRSGGSTRYADSVKGRFTISRENAKNTVYLQMNSLKPEDTAVYYCNAGKDRAYDYWGQGTQVTVSS,high polyreactivity
21,QVQLVESGGGLVQAGGSLRLSCAASGFTFYSYARGWYRQAPGKERELVAVINSSGGRTFYADSVKGRFTISRDNAKNTVYLQMNSLKPEDTAVYYCAARYAASRGPNQGKGNYWGQGTQVTVSS,high polyreactivity
22,QVQLVESGGGLVQAGGSLRLSCAASGFTFYSYVIGWYRQAPGKERELVAAITRGGSTYYADSVKGRFTISRDNAKNTVYLQMNSLKPEDTAVYYCAKRPSYGYNYWGQGTQVTVSS,low polyreactivity
23,QVQLVESGGGLVQAGGSLRLSCAASGFTFYTYAMGWYRQAPGKERELVAAINRSGGRTFYADSVKGRFTISRDNAKNTDYLQMNSLKPEDTAVYYCAADSRPYVGGMDYWGQGTQVTVSS,high polyreactivity
24,QVQLVESGGGLVQAGGSLRLSCAASGFTFYTYAMGWYRQAPGKERELVAGISTRGGRTYYADSVKGRFTISRDNAKNTVYLQMNSLKPEDTAVYYCNAVDKTGKYDYWGQGTQVTVSS,high polyreactivity
25,QVQLVESGGGLVQAGGSLRLSCAASGFTFYTYTMGWYRQAPGKERELVAVISRSGGSTYYADSVKGRFTISRDNAKNTVYLQMNSLKPEDTAVYYCNKVGIYGSRSRYDSWGQGTQVTVSS,high polyreactivity
26,QVQLVESGGGLVQAGGSLRLSCAASGFTFYVNAMGWYRQAPGKERELVAAISSSGTRTYYADSVKGRFTISRDKAKNTVYLQMNSLKPEDTAVYYCAARGQAYSGDRMYYWGQGTQVTVSS,high polyreactivity
27,QVQLVESGGGLVQAGGSLRLSCAASGFTFYVNAMGWYRQAPGKERELVAAITYDGDSTYYADSVKGRFTISRDNAKNTVYLQMNSLKPEDTAVYYRNTVYGPDLDGTEYDYWGQGTQVTVSS,low polyreactivity
28,QVQLVESGGGLVQAGGSLRLSCAASGFTFYVYAMGWYRQAPGKERELVASISRGGSTYYADSVKGRFTISRDNAKNTVYLQINSLKPEDTAVYYCNRVPYVSSSKVRYSNGFDYWGQGTQVTVSS,low polyreactivity
29,QVQLVESGGGLVQAGGSLRLSCAASGFTFYYYAKGWYRQAPGKERELVAAINKKGGSTYADSVKGRFTISRDNAKNSVYLQLNSLKPEDTAVYYCYAVLTYTGVGYESWGQGTQVTVSS,high polyreactivity
30,QVQLVESGGGLVQAGGSLRLSCAASGFTFYYYAMGWYRQAPGKERELVAAISRSGGSTYYADSVKGRFTISRDNAKNTVYLQMNSLKPEDTAVDYCNKGSRWLRGLDSWGQGTQVTVSS,high polyreactivity
